Test results reported in patent US20100239556A1, “PROMOTING ECM PRODUCTION BY FIBROBLAST CELLS AND/OR PROMOTING MIGRATION OF FIBROBLAST CELLS IN A BIOLOGICAL SYSTEM” (TGR BioScience Pty Ltd., priority 2006, published 2010).

Legend:
HFF cells = assay: Collagen I production in the presence of dexamethasone; format: cell-based, human
Procedure: (§1) Primary human foreskin fibroblast cells (HFF) were seeded into 96 well plates at a density of 1.2×10^4 cells/well and cultured overnight in 10% fetal bovine serum/Dulbecco's minimum essential media (10% FBS/DMEM) at 37° C. and 5% CO2. The cells were then starved overnight in serum free DMEM and triplicate wells treated for six hours with a range of doses of proteins with peroxidase activity; horse radish peroxidase (HRP; 0.2-50 ug/ml), Arthromyces ramosus peroxidase (ARP; 0.2-50 ug/ml), microperoxidase (MP; 8-500 ug/ml), soy bean peroxidase (SBP; 0.2-100 ug/ml) and lactoperoxidase (LP; 10-310 ug/ml) (all obtained from Sigma-Aldrich). At the end of the six hour treatment period, the media was aspirated and replaced with fresh serum free DMEM and the cells cultured for a further 72 hours. After 72 hours the culture media was collected for assessment of secreted, soluble collagen types I, III and VI as well as fibronectin protein and the cells assessed for viability/growth using an alamar blue fluorescent dye assay. This assay measures the reduction of oxidized, blue nonfluorescent Alamar Blue reagent to a pink fluorescent dye in the cell medium, such that the higher the amount of reduction, the greater the cell number and/or activity (O'Brien Eur J Biochem 267 2000). Briefly, cells were bathed in a 10% Alamar Blue/phosphate-buffered saline (PBS) solution for 30-60 minutes and fluorescence measured at wavelengths of 485 nm excitation and 595 nm emission using a Wallac Victor Multilabel HTS counter. Relative fluorescent units (RFU) for each sample were normalized to control wells (DMEM only treated cells) and data expressed as mean±standard error of the mean (sem) for triplicate wells. Experiments were repeated at least three times with the combined data from all experiments shown.
The amount of soluble collagen types I, III, and VI in HFF conditioned media was measured by a direct coat ELISA method using standard curves constructed from purified human collagen I, III or VI (extracted from human placenta; col I, BD Biosciences; col III and VI, Rocklands Immunochemicals) and fibronectin (extracted from human plasma, Chemicon). Samples and standards (20 μl/well) were added to a 384 well spectraplate (Packard BioScience) and left at room temperature (RT) overnight. […] After a final wash (6×PBS-T), enhancement solution was added for at least 10 minutes and fluorescence measured at excitation 340 nm and emission 615 nm using a Wallac Victor Multilabel HTS counter. The respective ECM concentration of each sample was determined from the standard curve (μg/ml) and normalized to control wells (DMEM only treated cells) with the mean±sem for triplicate wells calculated. […]

[1] = test system: human foreskin fibroblast cells (HFF); assay: Alamar blue viability/growth assay; format: cell-based; settings: 72 hours
Procedure: as §1, with “At the end of the six hour treatment period, the media was aspirated and replaced with fresh serum free DMEM and the cells cultured for a further 72 hours.” left out, “This assay measures the reduction of oxidized, blue nonfluorescent Alamar Blue reagent to a pink fluorescent dye in the cell medium, such that the higher the amount of reduction, the greater the cell number and/or activity (O'Brien Eur J Biochem 267 2000).” left out, “Experiments were repeated at least three times with the combined data from all experiments shown.” left out

[2] = test system: human foreskin fibroblast cells (HFF); assay: Soluble collagen I, III and VI in HFF conditioned media (direct coat ELISA); format: cell-based; settings: 30 μg/ml, 72 hours
Procedure: as §1, with “After 72 hours the culture media was collected for assessment of secreted, soluble collagen types I, III and VI as well as fibronectin protein and the cells assessed for viability/growth using an alamar blue fluorescent dye assay.” left out
The amount of soluble collagen types I, III, and VI in HFF conditioned media was measured by a direct coat ELISA method using standard curves constructed from purified human collagen I, III or VI (extracted from human placenta; col I, BD Biosciences; col III and VI, Rocklands Immunochemicals) and fibronectin (extracted from human plasma, Chemicon). Samples and standards (20 μl/well) were added to a 384 well spectraplate (Packard BioScience) and left at room temperature (RT) overnight. The spectraplate was then washed 6 times with PBS-tween 0.05% (PBS-T) and 2.5% bovine serum albumin (BSA)/PBS blocking solution added to each well and the plate incubated for 1 hour at RT. The plate was then washed 6 times with PBS-T and primary antibody (0.25 μg/ml rabbit-anti-human-collagen I polyclonal; 2 μg/ml rabbit-anti-human-collagen III polyclonal; 0.25 μg/ml rabbit-anti-human-collagen VI polyclonal; 0.2 μg/ml rabbit-anti-human-fibronectin polyclonal, all from Rockland Immunochemicals) in 5% non-fat dairy milk added to each well for four hours at RT. After washing (6×PBS-T), europium tagged anti-rabbit secondary antibody (0.5 μg/ml 1% BSA/PBS; Wallac Oy) was added for 1 hour at RT. After a final wash (6×PBS-T), enhancement solution was added for at least 10 minutes and fluorescence measured at excitation 340 nm and emission 615 nm using a Wallac Victor Multilabel HTS counter. The respective ECM concentration of each sample was determined from the standard curve (μg/ml) and normalized to control wells (DMEM only treated cells) with the mean±sem for triplicate wells calculated. Experiments were repeated at least three times with the combined data from all experiments shown.

[3] = test system: human foreskin fibroblast cells (HFF cells); assay: Repeated stimulation of collagen I production; format: cell-based; settings: further 5 days without second stimulation
Procedure: Experiments were performed to ensure human fibroblast cells could be stimulated to increase ECM protein production by proteins having peroxidase activity after more than one application of the proteins having peroxidase activity. The capacity to respond repeatedly to the proteins having peroxidase activity provides important utility for the generation of ECM in vitro, particularly given that spent culture media needs to be replaced on a regular basis to maintain the viability of the cells. These experiments were performed using human foreskin fibroblast cells (HFF cells) seeded into 96 well plates at a density of 1.2×10^4 cells/well and cultured for one week in 10% fetal bovine serum/Dulbecco's minimum essential media (10% FBS/DMEM) at 37° C. and 5% CO2 (as described in Example 3). The confluent cells were then starved overnight in serum free DMEM and triplicate wells treated for six hours with MP, ARP and LP as representative proteins having peroxidase activity or the control agents transforming growth factor β2 (TGFβ2; R&D Systems) and 10% FBS (JRH BioSciences). After 48 hours, the conditioned media was collected for measurement of collagen I (as a representative ECM protein) and the cells either restimulated for six hours with fresh solutions containing proteins having peroxidase activity or control agents or the media was replaced with fresh serum free DMEM. The cells were cultured for a further 5 days after which the media was collected a second time for the measurement of collagen I. Media was also collected from replicate wells treated at the start of the experiment and left for 7 days (total culture period) for comparison.

dermis = assay: Fibrogenic response after intradermal injection; format: in vivo, Sprague-Dawley rats; settings: LP 125 μg, TGFβ 0.5 μg, 3 days
Procedure: Groups of up to 4-8 female Sprague-Dawley rats were lightly anaesthetized and the dorsum shaved. At different sites on their dorsum, each rat received a bolus, intradermal injection of 4 doses of a protein with peroxidase activity (LP, […]; HRP, 1.25-25 μg; SBP, 1.25-25 μg; or micro-peroxidase [MP], 5-125 μg), a vehicle control or TGFβ2 as a positive control. Arthromyces ramosus peroxidase (ARP) was also injected at one dose of 25 μg. Proteins with peroxidase activity were injected in a volume of 50 μl which was sufficient to create a small blister in the skin that resolved within a few minutes. Across the group of rats, each dose of proteins with peroxidase activity was injected into each of the different injection sites to control for any site-related, intra-rat variation. The rats were returned to their cage and left alone for 3 days after which they were killed by CO2 asphyxiation and the skin at the injection sites collected for analysis. The skin at the injection sites was excised using a 6 mm biopsy punch with each piece bisected and fixed in 10% buffered formalin. Fixed tissue was processed for histological assessment by graded dehydration and mounting in paraffin blocks. Blocks were sectioned and sections stained with haematoxylin and eosin (H&E) and Masson's trichrome for qualitative analysis by an experienced pathologist. H&E stained sections were scored for the “fibroblast reaction” (1+-4+) to reflect the number of fibroblast cells identified at the injection site, with 4+ representing the greatest response. H&E and Massons trichrome stained sections were used to evaluate the amount of deposited, collagen-rich extracellular matrix (ECM) that was associated with the fibroblast reaction at each injection site. The collagen-rich ECM deposition was scored 1+-3+ with 3+ representing the greatest response. The scores were combined across the group of rats and statistical analysis performed using a Kruskal-Wallis one way analysis of variance on ranks (ANOVA) followed by post-hoc t-test comparing the response of the proteins with peroxidase activity to the control using Dunn's or Dunnett's method, p<0.05 was considered significant.

Molecule: C[C@@H]1C[C@H]2[C@@H]3CCC4=CC(=O)C=C[C@]4(C)[C@@]3(F)[C@@H](O)C[C@]2(C)[C@@]1(O)C(=O)CO [dexamethasone, reference compound]
- inhibition at 20 µM (HFF cells; Homo sapiens, HFF, dexamethasone 20 μM, read-out: inhibition of collagen stimulated by ARP): ~30%

Molecule: recombinant ascorbate peroxidase [APX]
- HFF cell growth or viability [1]: Neither APX nor MPO had a major effect

B1: myeloperoxidase (protein, UniProt P05164 165-745, looked up)
Myeloperoxidase: VTCPEQDKYRTITGMCNNRRSPTLGASNRAFVRWLPAEYEDGFSLPYGWTPGVKRNGFPVALARAVSNEIVRFPTDQLTPDQERSLMFMQWGQLLDHDLDFTPEPAARASFVTGVNCETSCVQQPPCFPLKIPPNDPRIKNQADCIPFFRSCPACPGSNITIRNQINALTSFVDASMVYGSEEPLARNLRNMSNQLGLLAVNQRFQDNGRALLPFDNLHDDPCLLTNRSARIPCFLAGDTRSSEMPELTSMHTLLLREHNRLATELKSLNPRWDGERLYQEARKIVGAMVQIITYRDYLPLVLGPTAMRKYLPTYRSYNDSVDPRIANVFTNAFRYGHTLIQPFMFRLDNRYQPMEPNPRVPLSRVFFASWRVVLEGGIDPILRGLMATPAKLNRQNQIAVDEIRERLFEQVMRIGLDLPALNMQRSRDHGLPGYNAWRRFCGLPQPETVGQLGTVLRNLKLARKLMEQYGTPNNIDIWMGGVSEPLKRKGRVGPLLACIIGTQFRKLRDGDRFWWENEGVFSMQQRQALAQISLPRIICDNTGITTVSKNNIFMSNSYPRDFVNCSTLPALNLASWREAS
- increase in collagen I production [2]: 3 fold
- HFF cell growth or viability [1]: Neither APX nor MPO had a major effect

B2: transforming growth factor β2 (protein, UniProt P61812 303-414, looked up)
Transforming growth factor …: ALDAAYCFRNVQDNCCLRPLYIDFKRDLGWKWIHEPKGYNANFCAGACPYLWSSDTQHSRVLSLYNTINPEASASPCCVSQDLEPLTILYYIGKTPKIEQLSNMIVKSCKCS
notes: control agent, fibrogenic factor (R&D Systems)
- collagen I production when left untreated after the media change at day 2 [3]: maintained level of collagen I production
- number of fibroblasts present at the injection site (H&E images) (dermis): profound increase in the number of fibroblasts
- maximum increase in collagen I levels (HFF cells; 1-10 ng/ml, no dexamethasone): 2-2.5 fold
